Measured values from PMC4396695, “Structure of the Ribosomal Oxygenase OGFOD1 Provides Insights into the Regio- and Stereoselectivity of Prolyl Hydroxylases” (Structure(London, England:1993), 2015).

Target: the molecule itself
Assay: native gel or EMSA; non-denaturing PAGE of OGFOD1 and of Tpa1p, each run alone; conditions not given

B1: Tpa1p (termination and polyadenylation protein 1) (enzyme, S. cerevisiae, UniProt P40032 1-644, looked up)
chain: MKRKTAEVKGEKERNSKQISLEEDKIKGMFNPKIWDKTFQDGLKKEIEDSQPYNWGTIHELVNDDLLRAVRKEIETEIHFTKKETDIYRVNQSGDLANLSGLDWDDLSRLPNLFKLRQILYSKQYRDFFGYVTKAGKLSGSKTDMSINTYTKGCHLLTHDDVIGSRRISFILYLPDPDRKWKSHYGGGLRLFPSILPNVPHSDPSAKLVPQFNQIAFFKVLPGFSFHDVEEVKVDKHRLSIQGWYHIPQVGEEGYIPGEEEAWVRNNTSTLAQIESNVLEDFEFPKDERNILSFHEVKHFEKMLKGDAGAKTDNTPKESMTSVISDSVKLSEAEFTYLSQYISPEHLSSKGIEKLQKQFVENSSLQIESFLNDDKSELLKKVIKQKELEQECPYHSKDVKAPWKTAIPPHKARYLYIDGKEYRNFQTEADILEALNNNDLPNFQFTKDAIKIISDASGNSRENNFDAELALIDLAVFHKSTIFKKYLALLTSLCPVSEQILIRRFRPGMDFTLATKCRFNELLKSNPDIIDAVLEGTLCLTPSAGWESGELGGYELYMMDDDEDNKQYLKEDVEDASVYRADDSGDSVLINDPPAWNTFNLVLRDESVLEFVKYVSWSAKSSRWDVKMKWDVKSCDEDGQEDEA
notes: Tpa1p, Saccharomyces cerevisiae, full length, 644 aa, 74 kDa; plasmid pNIC28_Tpa1p; source: E. coli BL21(DE3), purified (HisTrap, Superdex 200, MonoQ)
- stoichiometry N: 2
